In the DeepSol protein solubility set:

Assay: soluble on expression in E. coli; label from the status in PepcDB or PDB records

Question: With “MAHHHHHHMGKKAEFARSRFKEVRQKREERMQRSRTERDRRHGIDKLERKIGKVVVQRPLPNEAQQALLLAQFAQACRLVAPSTDMCILMRHYAKVAEAAEQKSKSTTMVTTSAPSAKSTTRKRKRDEAEEEEEEAPAAGATFLDTVADALLQTQNAPAVIEEAAASAKDGENALDDDDDDDDTVTVLQDILQDDNGRRVVATLLASLNAVHSSKCEAVAKAVLEQFEENEHLPQHHVACRVMSALAQFGSDPTRQGVLNLLRQRSTTIEGVERLLSDRHTAGTIEQLLKSYSRETAAWLCEALSLSTPVTSPSAAEAGGKKKKAAKQRDAAAEETASGERITTEKLMELVNGPVSGQVLLQLLHTDARRELLKRLPIVELLRSKRGTTFLTQLLMSTASVASSKGDEGREAEAVALFSDVLERLGNDLGEMAIDKRANFVVQALIQLLPAMGPQSAKQLERLERGLGGAAGISALVAHGNGVHVVLSLIDAALTLSSESAVEGLAEQLVTRQNVTDLLYHKHGSLVVRRLMPLISRKASKVGRLLQGMVEQDFSNLVYTEAGNLVVTAYLTALGKSGASLLAQKLAGGEELLSMCRSPYASHVVFTLFELVDPITHTLLCNALKAHVLPLSIHVNGRFIVEKMIAASRDVRESVSRQFLSLAQERGTQHVLCALLARMDARGKQACVEKTIMPNLTALATHQCGSIVLQKLMQAEPTVLSAVRQRLSANSLVRSDLAQNFFGKFVVQIAQQPEQEQPQ” as the sequence, how does the “soluble on expression in E. coli” value read?
Answer: soluble

Question: With “MGSDKIHHHHHHMLTSVFGISIKYEAWNHQDSLPVYIAGSYDFHTAYIGNRRCIMLAPTEELATLPALKKQIVKIQQIDNVPVVFELTTVSNYRRKSLIENNIPFITDKQVFLPFIGTMLSDEKEPQKLTGKFVYSTQQLFLFYLYSKKKRLYTSEAGKVLPFTAMTLTRAVKQLETTDLFLVAKDGVNKFIESKYKRDELFEKAKVYLTTPVRKTGYIDKTQVTENMVFAGETALSEKTMLNPSRVVTYAISEKDYDKSLLTDELIDPDKQVRLELWAYNPKQFSEDNSADDISLVLSFKDTNDERIEEAVDELQERRLHE” as the sequence, how does the “soluble on expression in E. coli” value read?
Answer: not soluble

Question: For “NPIEMDYIRQIEDVNNRRMKALRPPHRKEVLKAREDDIKDRVQNWMSRENEPRLQRISSELLKEYDSTELVASLLQELVEANDEVE”, which “soluble on expression in E. coli” value is on record?
Answer: not soluble

Question: With “YRFSDFEMGLLQTHAEMAERMVNEIGGEHLEIRVLAEITELLQERNEELSPFLTRVLSMATELIGADTGSIAIVQERDGEKWLVVEDEEGTIVGAKNKSWLKKYIPPFRIGGHELPAEERSLTGYVAWSKQPKIIAHVADEQGGEGFHRSMHELIKSEIAVPIVCDDEVIAVVCLNSLKPAWFTEEHKRILQIIDRLTSRHISDVQRIERLEGEVTRLKTDVAYKDPQISSYR” as the sequence, how does the “soluble on expression in E. coli” value read?
Answer: not soluble

Question: Which “soluble on expression in E. coli” value does the source give for “MGSDKIHHHHHHMAISRLLVEKFRNLTAVDLDFDPCFNFLIGNNGSGKTSLLEAIFYLGHGRSFKSAVTNRIISYDEPHFTLFGQIQESQHQWSIGLQKLRQGNTLVKINGEDGNKISDLAHLLPMQLITPEGLTLLNGGPSYRRAFLDWGLFHHQTSFYSAWSNLNRLLKQRNAALAQNQPYSAIKIWDVELAKLAHQVSEWRAEYAEALSPEIEQTCQLFLPELEINVSFHQGWEKNADYYEILQQNFERDRALNYTFSGPQKADFRFKAQGLPVEDVLSRGQLKLLMCALRLAQGEHLMKEKQRHCIFLIDDFASELDQYKRALLAERLQQSGSQVFVTAITQRQLKEMQVENKKMFSVHNGIINALN” here?
Answer: not soluble

Question: Which “soluble on expression in E. coli” value does the source give for “MKELRVKNQYEKHKEVEAAQGVKILGKDLEKTLAGLPLLVAYKDDEIPVLKDELIHELKQTLNAIKLEEKGVYVQASTLGSLEALLEFLKTSEVPYAGINIGPVHKKDVMKASVMLEHDPQYAVILAFDVRIERDAQEMADSLGVRIFSAEIIYHLFDAFTKYRQDYKKQKQEEFKHIAVFPCKMKILPQYIFNSRDPIVIGVTVEAGQVKQGTPMCVPSKNFVDIGIVTSIEINHKQVDVAKKGQEVCVKIEPIPGESPKMFGRHFEATDILVSKISRQSIDALKDWFRDEMQKSDWQLIVELKKVFEII” here?
Answer: soluble

Question: With “MSASAFNFAFRRFWNSETGPKTVHFWAPTLKWGLVFAGLNDIKRPVEKVSGAQNLSLLATALIWTRWSFVIKPKNYLLASVNFFLGCTAGYHLTRIANFRIRNGDSFKQVIHYIIKGETPAAVAAKQTASTSMNKGVIGTNPPITH” as the sequence, how does the “soluble on expression in E. coli” value read?
Answer: soluble

Question: For “MGSDKIHHHHHHMLARGKTNLKIEEIRMHKHHEIHRVKPLMPALCRIRQGKKVINWETHTLTVDNNQIILFPCGYEFYIENYPEAGLYLAEMLYLPIDLIESFQKLYTVTDQIRNKTSFFLPQNPELIYCWEQLKTSVSRGFSTKIQEHLAMGVLLSLGVNHVNHLLLSYSKQSLISRCYNLLLSEPGTKWTANKVARYLYISVSTLHRRLASEGVSFQSILDDVRLNNALSAIQTTVKPISEIARENGYKCPSRFTERFHNRFNITPREIRKASRE”, which “soluble on expression in E. coli” value is on record?
Answer: not soluble

Question: With “MKPATFKEAVVLYEGMIVNQIKKLGIRKDYEEYYQCGLIGLWHAYERFDEKKGYFPAYAVVTVRGYILERLKKEFAVQERCVCVGEYEDIFHFEDVEIRVKDFMSVLDEKEKYIIFERFFVGKTMGEIALETEMTYYQVRWMYRQALEKMRDSVKG” as the sequence, how does the “soluble on expression in E. coli” value read?
Answer: not soluble

Question: For “MSLAANMYRVGDYVYFENSSSNPYLIRRIEELNKTASGNVEAKVVCFYRRRDISNTLIMLADKHAKEIEEESETTVEADLTDKQKHQLKHRELFLSRQYESLPATHIRGKCSVALLNETESVLSYLDKEDTFFYSLVYDPSLKTLLADKGEIRVGPRYQADIPEMLLEGESDEREQSKLEVKVWDPNSPLTDRQIDQFLVVARAVGTFARALDCSSSVRQPSLHMSAAAASRDITLFHAMDTLYRHSYDLSSAISVLVPLGGPVLCRDEMEEWSASEASLFEEALEKYGKDFNDIRQDFLPWKSLTSIIEYYYMWKTTDRYVQQKRLKAAEAESKLKQVYIPTYSKPNPNQISTSNGKPGAVNGAVGTTFQPQNPLLGRACESCYATQSHQWYSWGPPNMQCRLCAICWLYWKKYGGLKMPTQSEEEKLSPSPTTEDPRVRSHVSRQAMQGMPVRNTGSPKSAVKTRQAFFLHTTYFTKFARQVCKNTLRLRQAARRPFVAINYAAIRAECKMLLNSEGHHHHHH”, which “soluble on expression in E. coli” value is on record?
Answer: not soluble

Question: With “AIAAAPIESLLNEICESEDPIEELKSLRTAVLATPVSGLRPAVSGARLEIIFSLLNTNDKEQIEVCVEILSRVLQALEPVQLAQNYRTALQSGLNHPDDSVKVLTLTQIGRVAGHTEGVTQMLNNVEILHDVIQCISVERIAVAKEAIAALSKLSNTKAGLDALFRSDLLNKLKDVMLTSDIIRYRVYELIVEVSTVSPVSLGYCANSGLISQMLEELTGDDVLVRATAIEMVTNLAQSQHGRQYLAQQGIMDKISSVQKIFGAHNYLKLKTYLNEGSYYVTAVSAVTTEGAD” as the sequence, how does the “soluble on expression in E. coli” value read?
Answer: soluble

Question: With “AETSSATTAQQMPSLAPMLEKVMPSVVSINVEGSTTVNTPRMPRNFQQFFGDDSPFCQEGSPFQSSPFCQGGQGGNGGGQQQKFMALGSGVIIDADKGYVVTNNHVVDNATVIKVQLSDGRKFDAKMVGKDPRSDIALIQIQNPKNLTAIKMADSDALRVGDYTVAIGNPFGLGETVTSGIVSALGRSGLNAENYENFIQTDAAINRGNSGGALVNLNGELIGINTAILAPDGGNIGIGFAIPSNMVKNLTSQMVEYGQVKRGELGIMGTELNSELAKAMKVDAQRGAFVSQVLPNSSAAKAGIKAGDVITSLNGKPISSFAALRAQVGTMPVGSKLTLGLLRDGKQVNVNLELQQSSQNQVDSSSIFNGIEGAEMSNKGKDQGVVVNNVKTGTPAAQIGLKKGDVIIGANQQAVKNIAELRKVLDSKPSVLALNIQRGDSTIYLLMQ” as the sequence, how does the “soluble on expression in E. coli” value read?
Answer: soluble

Question: Which “soluble on expression in E. coli” value does the source give for “MHIPENLYVVGTMNIADRSLALVDLALRRRFAFVGLEPRLGQVWRDWVVKECAVDPGLVADIERRIAELNDQIAADARLGKQFRIGHSYVTPAHRLEAGDTKKWFLQVVETEIGPLLDEYWFDAPDEAQKAIARLTQGLEHHHHHH” here?
Answer: not soluble
